According to the supplement of paper PMC5998384:

Key:
HeLa Kyoto [1] = assay: solubility in G1/S (NP-40 vs SDS abundance) (log2 ratio); higher = more soluble; settings: cell cycle stage: G1/S
HeLa Kyoto [2] = assay: thermal stability score vs G1/S (z-score of summed log2 fold changes over temperatures); higher = more thermally stable than in G1/S
HeLa Kyoto [3] = assay: solubility change mitosis vs G1/S (difference of NP-40 vs SDS log2 ratios) (log2 ratio difference); higher = more soluble in mitosis
[4] = cell cycle stage: early G1 (4.5 h after nocodazole release)
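For solubility change mitosis vs G1/S (difference of NP-40 vs SDS log2 ratios) in this document: synchronized HeLa Kyoto cells (double thymidine block for G1/S, nocodazole release for mitosis), protein amounts in NP-40 versus SDS lysates quantified by mass spectrometry, three biological replicates.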
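For solubility in G1/S (NP-40 vs SDS abundance) in this document: HeLa Kyoto cells arrested at G1/S by double thymidine block, proteins quantified by TMT10plex mass spectrometry in mild NP-40 versus SDS extracts, three biological replicates.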
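For thermal stability score vs G1/S (z-score of summed log2 fold changes over temperatures) in this document: synchronized HeLa Kyoto cells, proteins quantified by TMT10plex mass spectrometry, three biological replicates, mitosis taken 0.5 h after nocodazole release, G1/S directly after double thymidine block.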

Sequence | solubility in G1/S (log2) (HeLa Kyoto [1]) | thermal stability score (HeLa Kyoto [2]; [4]) | thermal stability score (HeLa Kyoto [2]; cell cycle stage: mitosis) | solubility change mitosis (log2) (HeLa Kyoto [3])
MECPVMETGSLFTSGIKRHLKDKRISKTTKLNVSLASKIKTKILNNSSIFKISLKHNNRALAQALSREKENSRRITTEKMLLQKEVEKLNFENTFLRLKLNNLNKKLIDIEALMNNNLITAIEMSSLSEFHQSSFLLSASKKKRISKQCKLMRLPFARVPLTSNDDEDEDKEKMQCDNNIKSKTLPDIPSSGSTTQPLSTQDNSEVLFLKENNQNVYGLDDSEHISSIVDVPPRESHSHSDQSSKTSLMSEMRNAQSIGRRWEKPSPSNVTERKKRGSSWESNNLSADTPCATVLDKQHISSPELNCNNEINGHTNETNTEMQRNKQDLPGLSSESAREPNAECMNQIEDNDDFQLQKTVYDADMDLTASEVSKIVTVSTGIKKKSNKKTNEHGMKTFRKVKDSSSEKKRERSKRQFKNSSDVDIGEKIENRTERSDVLDGKRGAEDPGFIFNNEQLAQMNEQLAQVNELKKMTLQTGFEQGDRENVLCNKKEKRITNEQEETYSLSQSSGKFHQESKFDKGQNSLTCNKSKASRQTFVIHKLEKDNLLPNQKDKVTIYENLDVTNEFHTANLSTKDNGNLCDYGTHNILDLKKYVTDIQPSEQNESNINKLRKKVNRKTEIISGMNHMYEDNDKDVVHGLKKGNFFFKTQEDKEPISENIEVSKELQIPALSTRDNENQCDYRTQNVLGLQKQITNMYPVQQNESKVNKKLRQKVNRKTEIISEVNHLDNDKSIEYTVKSHSLFLTQKDKEIIPGNLEDPSEFETPALSTKDSGNLYDSEIQNVLGVKHGHDMQPACQNDSKIGKKPRLNVCQKSEIIPETNQIYENDNKGVHDLEKDNFFSLTPKDKETISENLQVTNEFQTVDLLIKDNGNLCDYDTQNILELKKYVTDRKSAEQNESKINKLRNKVNWKTEIISEMNQIYEDNDKDAHVQESYTKDLDFKVNKSKQKLECQDIINKHYMEVNSNEKESCDQILDSYKVVKKRKKESSCKAKNILTKAKNKLASQLTESSQTSISLESDLKHITSEADSDPGNPVELCKTQKQSTTTLNKKDLPFVEEIKEGECQVKKVNKMTSKSKKRKTSIDPSPESHEVMERILDSVQGKSTVSEQADKENNLENEKMVKNKPDFYTKAFRSLSEIHSPNIQDSSFDSVREGLVPLSVSSGKNVIIKENFALECSPAFQVSDDEHEKMNKMKFKVNRRTQKSGIGDRPLQDLSNTSFVSNNTAESENKSEDLSSERTSRRRRCTPFYFKEPSLRDKMRR [SGOL2] | -0.383 | 0.746 | 2.18 | 0.191
MEDPSEPDRLASADGGSPEEEEDGEREPLLPRIAWAHPRRGAPGSAVRLLDAAGEEGEAGDEELPLPPGDVGVSRSSSAELDRSRPAVSVTIGTSEMNAFLDDPEFADIMLRAEQAIEVGIFPERISQGSSGSYFVKDPKRKIIGVFKPKSEEPYGQLNPKWTKYVHKVCCPCCFGRGCLIPNQGYLSEAGAYLVDNKLHLSIVPKTKVVWLVSETFNYNAIDRAKSRGKKYALEKVPKVGRKFHRIGLPPKIGSFQLFVEGYKEAEYWLRKFEADPLPENIRKQFQSQFERLVILDYIIRNTDRGNDNWLVRYEKQKCEKEIDHKESKWIDDEEFLIKIAAIDNGLAFPFKHPDEWRAYPFHWAWLPQAKVPFSEEIRNLILPYISDMNFVQDLCEDLYELFKTDKGFDKATFESQMSVMRGQILNLTQALRDGKSPFQLVQIPCVIVERSQGGSQGRIVHLSNSFTQTVNCRKPFFSSW [PI4K2B] | 0.198 | 0.385 | 0.874 | -0.206
MEEGKMDENEWGYHGEGNKSLVVAHAQRCVVLRFLKFPPNRKKTSEEIFQHLQNIVDFGKNVMKEFLGENYVHYGEVVQLPLEFVKQLCLKIQSERPESRCDKDLDTLSGYAMCLPNLTRLQTYRFAEHRPILCVEIKPKCGFIPFSSDVTHEMKHKVCRYCMHQHLKVATGKWKQISKYCPLDLYSGNKQRMHFALKSLLQEAQNNLKIFKNGELIYGCKDARSPVADWSELAHHLKPFFFPSNGLASGPHCTRAVIRELVHVITRVLLSGSDKGRAGTLSPGLGPQGPRVCEASPFSRSLRCQGKNTPERSGLPKGCLLYKTLQVQMLDLLDIEGLYPLYNRVERYLEEFPEERKTLQIDGPYDEAFYQKLLDLSTEDDGTVAFALTKVQQYRVAMTAKDCSIMIALSPCLQDASSDQRPVVPSSRSRFAFSVSVLDLDLKPYESIPHQYKLDGKIVNYYSKTVRAKDNAVMSTRFKESEDCTLVLHKV [IPPK] | -0.275 | 0.519 | 1.21 | -0.0236
MEGQSSRGSRRPGTRAGLGSLPMPQGVAQTGAPSKVDSSFQLPAKKNAALGPSEPRLALAPVGPRAAMSASSEGPRLALASPRPILAPLCTPEGQKTATAHRSSSLAPTSVGQLVMSASAGPKPPPATTGSVLAPTSLGLVMPASAGPRSPPVTLGPNLAPTSRDQKQEPPASVGPKPTLAASGLSLALASEEQPPELPSTPSPVPSPVLSPTQEQALAPASTASGAASVGQTSARKRDAPAPRPLPASEGHLQPPAQTSGPTGSPPCIQTSPDPRLSPSFRARPEALHSSPEDPVLPRPPQTLPLDVGQGPSEPGTHSPGLLSPTFRPGAPSGQTVPPPLPKPPRSPSRSPSHSPNRSPCVPPAPDMALPRLGTQSTGPGRCLSPNLQAQEAPAPVTTSSSTSTLSSSPWSAQPTWKSDPGFRITVVTWNVGTAMPPDDVTSLLHLGGGDDSDGADMIAIGLQEVNSMLNKRLKDALFTDQWSELFMDALGPFNFVLVSSVRMQGVILLLFAKYYHLPFLRDVQTDCTRTGLGGYWGNKGGVSVRLAAFGHMLCFLNCHLPAHMDKAEQRKDNFQTILSLQQFQGPGAQGILDHDLVFWFGDLNFRIESYDLHFVKFAIDSDQLHQLWEKDQLNMAKNTWPILKGFQEGPLNFAPTFKFDVGTNKYDTSAKKRKPAWTDRILWKVKAPGGGPSPSGRKSHRLQVTQHSYRSHMEYTVSDHKPVAAQFLLQFAFRDDMPLVRLEVADEWVRPEQAVVRYRMETVFARSSWDWIGLYRVGFRHCKDYVAYVWAKHEDVDGNTYQVTFSEESLPKGHGDFILGYYSHNHSILIGITEPFQISLPSSELASSSTDSSGTSSEGEDDSTLELLAPKSRSPSPGKSKRHRSRSPGLARFPGLALRPSSRERRGASRSPSPQSRRLSRVAPDRSSNGSSRGSSEEGPSGLPGPWAFPPAVPRSLGLLPALRLETVDPGGGGSWGPDREALAPNSLSPSPQGHRGLEEGGLGP [INPP5J] | 0.0932 | 0.193 | 0.518 | -0.115
MESGGRPSLCQFILLGTTSVVTAALYSVYRQKARVSQELKGAKKVHLGEDLKSILSEAPGKCVPYAVIEGAVRSVKETLNSQFVENCKGVIQRLTLQEHKMVWNRTTHLWNDCSKIIHQRTNTVPFDLVPHEDGVDVAVRVLKPLDSVDLGLETVYEKFHPSIQSFTDVIGHYISGERPKGIQETEEMLKVGATLTGVGELVLDNNSVRLQPPKQGMQYYLSSQDFDSLLQRQESSVRLWKVLALVFGFATCATLFFILRKQYLQRQERLRLKQMQEEFQEHEAQLLSRAKPEDRESLKSACVVCLSSFKSCVFLECGHVCSCTECYRALPEPKKCPICRQAITRVIPLYNS [MUL1] | 0.127 | -0.138 | 0.791 | -0.00588
MESSSSDYYNKDNEEESLLANVASLRHELKITEWSLQSLGEELSSVSPSENSDYAPNPSRSEKLILDVQPSHPGLLNYSPYENVCKISGSSTDFQKKPRDKMFSSSAPVDQEIKSLREKLNKLRQQNACLVTQNHSLMTKFESIHFELTQSRAKVSMLESAQQQAASVPILEEQIINLEAEVSAQDKVLREAENKLEQSQKMVIEKEQSLQESKEECIKLKVDLLEQTKQGKRAERQRNEALYNAEELSKAFQQYKKKVAEKLEKVQAEEEILERNLTNCEKENKRLQERCGLYKSELEILKEKLRQLKEENNNGKEKLRIMAVKNSEVMAQLTESRQSILKLESELENKDEILRDKFSLMNENRELKVRVAAQNERLDLCQQEIESSRVELRSLEKIISQLPLKRELFGFKSYLSKYQMSSFSNKEDRCIGCCEANKLVISELRIKLAIKEAEIQKLHANLTANQLSQSLITCNDSQESSKLSSLETEPVKLGGHQVESVKDQNQHTMNKQYEKERQRLVTGIEELRTKLIQIEAENSDLKVNMAHRTSQFQLIQEELLEKASNSSKLESEMTKKCSQLLTLEKQLEEKIVAYSSIAAKNAELEQELMEKNEKIRSLETNINTEHEKICLAFEKAKKIHLEQHKEMEKQIERLEAQLEKKDQQFKEQEKTMSMLQQDIICKQHHLESLDRLLTESKGEMKKENMKKDEALKALQNQVSEETIKVRQLDSALEICKEELVLHLNQLEGNKEKFEKQLKKKSEEVYCLQKELKIKNHSLQETSEQNVILQHTLQQQQQMLQQETIRNGELEDTQTKLEKQVSKLEQELQKQRESSAEKLRKMEEKCESAAHEADLKRQKVIELTGTARQVKIEMDQYKEELSKMEKEIMHLKRDGENKAMHLSQLDMILDQTKTELEKKTNAVKELEKLQHSTETELTEALQKREVLETELQNAHGELKSTLRQLQELRDVLQKAQLSLEEKYTTIKDLTAELRECKMEIEDKKQELLEMDQALKERNWELKQRAAQVTHLDMTIREHRGEMEQKIIKLEGTLEKSELELKECNKQIESLNDKLQNAKEQLREKEFIMLQNEQEISQLKKEIERTQQRMKEMESVMKEQEQYIATQYKEAIDLGQELRLTREQVQNSHTELAEARHQQVQAQREIERLSSELEDMKQLSKEKDAHGNHLAEELGASKVREAHLEARMQAEIKKLSAEVESLKEAYHMEMISHQENHAKWKISADSQKSSVQQLNEQLEKAKLELEEAQDTVSNLHQQVQDRNEVIEAANEALLTKESELTRLQAKISGHEKAEDIKFLPAPFTSPTEIMPDVQDPKFAKCFHTSFSKCTKLRRSISASDLTFKIHGDEDLSEELLQDLKKMQLEQPSTLEESHKNLTYTQPDSFKPLTYNLEADSSENNDFNTLSGMLRYINKEVRLLKKSSMQTGAGLNQGENV [CCDC18] | 0.155 | -0.388 | -0.856 | 0.237
MEVRKLSISWQFLIVLVLILQILSALDFDPYRVLGVSRTASQADIKKAYKKLAREWHPDKNKDPGAEDKFIQISKAYEILSNEEKRSNYDQYGDAGENQGYQKQQQQREYRFRHFHENFYFDESFFHFPFNSERRDSIDEKYLLHFSHYVNEVVPDSFKKPYLIKITSDWCFSCIHIEPVWKEVIQELEELGVGIGVVHAGYERRLAHHLGAHSTPSILGIINGKISFFHNAVVRENLRQFVESLLPGNLVEKVTNKNYVRFLSGWQQENKPHVLLFDQTPIVPLLYKLTAFAYKDYLSFGYVYVGLRGTEEMTRRYNINIYAPTLLVFKEHINRPADVIQARGMKKQIIDDFITRNKYLLAARLTSQKLFHELCPVKRSHRQRKYCVVLLTAETTKLSKPFEAFLSFALANTQDTVRFVHVYSNRQQEFADTLLPDSEAFQGKSAVSILERRNTAGRVVYKTLEDPWIGSESDKFILLGYLDQLRKDPALLSSEAVLPDLTDELAPVFLLRWFYSASDYISDCWDSIFHNNWREMMPLLSLIFSALFILFGTVIVQAFSDSNDERESSPPEKEEAQEKTGKTEPSFTKENSSKIPKKGFVEVTELTDVTYTSNLVRLRPGHMNVVLILSNSTKTSLLQKFALEVYTFTGSSCLHFSFLSLDKHREWLEYLLEFAQDAAPIPNQYDKHFMERDYTGYVLALNGHKKYFCLFKPQKTVEEEEAIGSCSDVDSSLYLGESRGKPSCGLGSRPIKGKLSKLSLWMERLLEGSLQRFYIPSWPELD [DNAJC16] | -0.398 | -0.236 | -0.485 | 1.48e-05
